Target: T1, RheA (RheASal) (Streptomyces albidoflavus J1074) (UniProt O08247)
T1 sequence: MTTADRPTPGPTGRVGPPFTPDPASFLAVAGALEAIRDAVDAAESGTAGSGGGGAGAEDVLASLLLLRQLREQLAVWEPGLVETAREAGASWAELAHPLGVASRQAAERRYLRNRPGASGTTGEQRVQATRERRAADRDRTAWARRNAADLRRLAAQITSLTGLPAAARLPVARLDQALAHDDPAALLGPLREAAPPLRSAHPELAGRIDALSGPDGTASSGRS
Assay: EMSA
Details: 20 mM Tris-HCl pH 7.5, 1 mM DTT, 5 mM MgCl2, 0.5 mg/ml BSA, 5% glycerol, 20 uL, 30 C 25 min, 4.5% native PAGE in 45 mM Tris-HCl pH 8.0, 45 mM boric acid

Sequence: GAGTGAACACCTCCAGAAGTCCAGGCAGTTGATGCCATGCGCTTCGCTTGGCACCGTTGTAACATGTCATCCGAACGATGACAAGCGAGTCGTCGTCCATCGGATGACGACCCGGAGTGATATC (double strand) [RS01 probe (one rheO)]
- binding: binds
